Measured values published in paper PMC10995880 (iScience, 2024).
Where a chain is given by its changes, count along the chain named. Names may count otherwise. Each block holds one binder with its values, some of them ahead of it.

Molecular target: His6-PEX19-WT (1–299 aa), non-farnesylated (human, UniProt P40855 1-299)
Experiment: pull-down; His6-PEX19 pull-down of Flag-PEX3ΔN variants at the same concentrations of PEX19 and PEX3 as in the PEX26^Bpa crosslinking experiments (400 nM)
Conditions: both partners purified

His6-PEX19-WT (1–299 aa), non-farnesylated, sequence (P40855 whole entry, the tested form may be a part): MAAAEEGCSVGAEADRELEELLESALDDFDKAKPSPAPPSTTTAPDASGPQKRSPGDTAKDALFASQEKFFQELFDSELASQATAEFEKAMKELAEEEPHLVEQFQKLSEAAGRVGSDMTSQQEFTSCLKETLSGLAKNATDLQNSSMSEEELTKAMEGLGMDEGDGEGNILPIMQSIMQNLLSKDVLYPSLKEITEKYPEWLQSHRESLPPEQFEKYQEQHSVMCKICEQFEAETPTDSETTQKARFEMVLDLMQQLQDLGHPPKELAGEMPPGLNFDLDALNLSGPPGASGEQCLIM

- binding result: binds
B1: Flag-PEX3ΔN-G138E (domain or fragment, UniProt P56589 41-373, looked up)
chain: QEREAAEYIAQARRQYHFESNQRTCNMTVLSMLPTLREALMQQLNSESLTALLKNRPSNKLEIWEDLKIISFTRSTVAVYSTCMLVVLLRVQLNIIGEYIYLDNAAVGKNGTTILAPPDVQQQYLSSIQHLLGDGLTELITVIKQAVQKVLGSVSLKHSLSLLDLEQKLKEIRNLVEQHKSSSWINKDGSKPLLCHYMMPDEETPLAVQACGLSPRDITTIKLLNETRDMLESPDFSTVLNTCLNRGFSRLLDNMAEFFRPTEQDLQHGNSMNSLSSVSLPLAKIIPIVNGQIHSVCSETPSHFVQDLLTMEQVKDFAANVYEAFSTPQQLEK

- binding result: binds
B2: Flag-PEX3ΔN-M72K (domain or fragment, UniProt P56589 41-373, looked up)
chain: B1 chain with M32K, E98G
